Experimental data reported in patent US20140128280A1 (published 2014).

Assays:
[1] = biological target: T1, transferrin (human, UniProt P02787 20-698); assay: SPR (Biacore A-100), purified peptide at several concentrations
T1 construct: Amine-coupled to SPR chips, tips or beads; Alexa 555-labeled on arrays; also called TRF; pooled human transferrin (Sigma)
Text: A Biacore A-100 Surface Plasmon Resonance (SPR) system was used to measure the binding response of each peptide to several different target proteins immobilized on a gold surface. The A-100 has four different flow cells and within each flow cell are five addressable spots. Therefore four different proteins and a negative control reference can be used per flow cell. […] Sensorgrams are collected from each immobilized protein, so a binding profile for each analyte versus each of the protein targets is generated for each injection. Target proteins were immobilized using a biotin capture approach in which a CM5 chip was activated using standard amine coupling chemistry and Neutravidin was covalently coupled to the chip. Each biotinylated protein was injected over a single spot and the amount of protein captured was measured. In this manner four proteins were immobilized per flow cell. In this example, the same four proteins were captured in all four flow cells for this experiment.

[2] = biological target: T2, α1-antitrypsin; assay: SPR
T2 construct: also called α-antitrypsin; α-antitrypsine

[3] = biological target: T3, Gal80 (UniProt P04387 1-435, limits assumed); assay: gel shift assay
T3 construct: Cy3/Cy5-labeled on arrays; immobilized on SPR chip or ELISA well, or in solution over immobilized synbody
T3 sequence (looked up): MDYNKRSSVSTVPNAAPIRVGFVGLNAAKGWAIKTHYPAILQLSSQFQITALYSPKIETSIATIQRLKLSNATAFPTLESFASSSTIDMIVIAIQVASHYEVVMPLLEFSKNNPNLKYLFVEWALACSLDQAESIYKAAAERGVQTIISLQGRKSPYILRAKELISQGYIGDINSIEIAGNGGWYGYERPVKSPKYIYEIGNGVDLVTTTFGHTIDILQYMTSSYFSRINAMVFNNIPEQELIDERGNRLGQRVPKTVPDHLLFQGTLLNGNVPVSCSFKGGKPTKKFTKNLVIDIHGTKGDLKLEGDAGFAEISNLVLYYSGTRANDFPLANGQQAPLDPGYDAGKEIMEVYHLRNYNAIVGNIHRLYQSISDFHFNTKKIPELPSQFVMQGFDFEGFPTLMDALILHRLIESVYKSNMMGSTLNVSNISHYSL

[4] = biological target: T3, Gal80; assay: SPR, synbody in solution (1 µM to 7.81 nM) over surface-bound Gal80

T2 sequence (P01009 25-418): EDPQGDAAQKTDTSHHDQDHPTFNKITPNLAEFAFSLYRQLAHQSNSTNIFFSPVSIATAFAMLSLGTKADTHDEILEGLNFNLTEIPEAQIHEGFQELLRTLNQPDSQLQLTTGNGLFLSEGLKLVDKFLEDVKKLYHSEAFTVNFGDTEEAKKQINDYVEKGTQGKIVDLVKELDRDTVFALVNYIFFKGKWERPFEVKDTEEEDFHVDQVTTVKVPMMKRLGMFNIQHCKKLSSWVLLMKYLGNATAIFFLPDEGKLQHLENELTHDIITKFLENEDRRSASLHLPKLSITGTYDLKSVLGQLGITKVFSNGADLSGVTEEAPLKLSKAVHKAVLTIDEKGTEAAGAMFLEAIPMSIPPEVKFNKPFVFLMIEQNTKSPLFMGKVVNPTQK
T1 sequence (P02787 20-698 limits assumed): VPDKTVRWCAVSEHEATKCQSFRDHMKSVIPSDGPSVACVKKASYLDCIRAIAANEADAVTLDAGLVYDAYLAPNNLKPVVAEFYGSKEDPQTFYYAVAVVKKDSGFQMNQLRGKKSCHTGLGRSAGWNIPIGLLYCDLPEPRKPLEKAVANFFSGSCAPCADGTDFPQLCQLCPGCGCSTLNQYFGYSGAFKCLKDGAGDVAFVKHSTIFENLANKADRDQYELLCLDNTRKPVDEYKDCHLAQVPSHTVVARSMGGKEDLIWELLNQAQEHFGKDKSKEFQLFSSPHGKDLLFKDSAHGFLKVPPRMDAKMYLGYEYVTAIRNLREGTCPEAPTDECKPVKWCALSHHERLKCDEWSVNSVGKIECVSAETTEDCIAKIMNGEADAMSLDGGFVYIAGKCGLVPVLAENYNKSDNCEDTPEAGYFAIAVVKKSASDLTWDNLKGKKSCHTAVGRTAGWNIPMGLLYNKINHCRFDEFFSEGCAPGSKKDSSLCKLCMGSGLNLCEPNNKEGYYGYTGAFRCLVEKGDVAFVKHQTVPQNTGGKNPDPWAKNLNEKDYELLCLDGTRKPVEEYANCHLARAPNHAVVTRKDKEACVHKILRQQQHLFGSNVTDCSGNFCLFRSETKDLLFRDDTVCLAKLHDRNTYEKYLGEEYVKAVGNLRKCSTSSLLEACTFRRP

## NQYVPIFSQPEDPVQQEGSC (Screened unpurified) [TRF102]
[1]
  binding result: no binding

B1: BP1/BP2 DNA-linked synbody (linker-optimized: BP1 on the template strand, BP2 at position 13 from the 3' end of the variable strand) (designed binder)
peptide 1: GTEKGTSGWLKTGSC
peptide 2: EGEWTEGKLSLRGSC
modifications: C-terminal Cys joined through SMCC to the amine-modified cytosine at position 13 from the 3' terminus of the DNA variable strand (SEQ ID NO: 15); C-terminal Cys joined through SMCC to the 5' terminal amine-modified cytosine of the DNA template strand (SEQ ID NO: 14)
notes: Two peptides held by a double-stranded DNA linker; also called Gal80 synbody; gal80 synbody
[2]
  Kd relative to the Kd for gal80: 1000 fold
[3]
  Kd: ~100 nM
[4]
  Kd: 91 nM
